Where two headings read alike, the source gives them in different places.
Columns and labels:
human IL-17A [1] = biological target: T1, human IL-17A (human, UniProt Q16552 24-155); assay: SPR (Biacore) off-rate
T1 construct: secreted form made in Hek293 cells (GenBank U32659); also called hIL-17A; hIL17A
T1 sequence (Q16552 other isoform, or with tags, fused parts or gaps): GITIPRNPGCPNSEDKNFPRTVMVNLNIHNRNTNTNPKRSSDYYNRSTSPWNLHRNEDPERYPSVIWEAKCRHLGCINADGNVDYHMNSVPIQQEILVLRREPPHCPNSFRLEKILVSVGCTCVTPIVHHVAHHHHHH

[2] = biological target: T2, human IL-17A/F heterodimer (human, UniProt Q16552 24-155; Q96PD4 31-163, limits assumed); assay: SPR (Biacore) off-rate
T2 construct: bought, made in E. coli (R&D Systems 5194-IL/CF); also called hIL-17A/F; hIL17A/F
Target sequence in this assay (Q16552 24-155 limits assumed, one chain of several): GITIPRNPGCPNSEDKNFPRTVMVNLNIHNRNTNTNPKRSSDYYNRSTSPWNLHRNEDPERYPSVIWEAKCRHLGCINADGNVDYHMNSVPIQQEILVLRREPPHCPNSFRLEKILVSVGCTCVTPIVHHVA

Cynomolgus monkey IL-17A = biological target: T3, Cynomolgus monkey IL-17A (Cynomolgus monkey, UniProt A0A2K5TTB0 24-155); assay: SPR (Biacore) off-rate
T3 construct: also called cyno IL-17A; cIL-17A

human IL-17A [3] = biological target: T1, human IL-17A; assay: cell-based or functional assay
[4] = biological target: T2, human IL-17A/F heterodimer; assay: cell-based or functional assay
Target sequence in this assay (Q16552 24-155 limits assumed, one chain of several): as above

human IL-17A [5] = biological target: T1, human IL-17A; assay: AlphaScreen IL-17A-IL-17RA (average)
human IL-17A [6] = biological target: T4, human IL-17A (human, UniProt Q16552 24-155); assay: cell-based or functional assay; remark: listed apart in the source
T4 sequence (Q16552 other isoform, or with tags, fused parts or gaps): as the sequence (Q16552 other isoform, or with tags, fused parts or gaps) above

human IL-17F [7] = biological target: T5, human IL-17F (human, UniProt Q96PD4 31-163); assay: cell-based or functional assay
T5 sequence: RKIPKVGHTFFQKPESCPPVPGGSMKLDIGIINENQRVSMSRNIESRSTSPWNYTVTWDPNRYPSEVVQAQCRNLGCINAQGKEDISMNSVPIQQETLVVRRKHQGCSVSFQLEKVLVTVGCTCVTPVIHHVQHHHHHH

human IL-17A [8] = biological target: T4, human IL-17A; assay: competition ELISA IL17A-RA
Method: (§1) To this end, IL-17RA, respectively IL-17RC was coated at a concentration of 1 μg/ml in PBS.

human IL-17F [9] = biological target: T5, human IL-17F; assay: competition ELISA IL17F-RC
Method: as §1

human IL-17A [10] = biological target: T4, human IL-17A; assay: ELISA, coated IL-17A
Method: (§2) Binding of a selected panel of anti-IL-17 Nanobodies to IL-17 of other species was assessed using a binding ELISA. […] HRP (horseradish peroxidase) conjugated anti-myc (Serotec, MCA 2200P) was used for detection using esTMB as substrate.

marmoset IL-17A = biological target: T6, marmoset IL-17A (marmoset, IL-17A is a disulfide-linked homodimer. One chain is given.); assay: ELISA, coated IL-17A
T6 chain: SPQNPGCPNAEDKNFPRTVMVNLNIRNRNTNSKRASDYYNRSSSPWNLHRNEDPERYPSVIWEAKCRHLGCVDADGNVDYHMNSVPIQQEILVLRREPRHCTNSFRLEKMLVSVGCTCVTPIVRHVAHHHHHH
Method: as §2

mouse IL-17A = biological target: T7, mouse IL-17A (mouse, UniProt Q62386 26-158); assay: ELISA, coated IL-17A
T7 sequence (looked up): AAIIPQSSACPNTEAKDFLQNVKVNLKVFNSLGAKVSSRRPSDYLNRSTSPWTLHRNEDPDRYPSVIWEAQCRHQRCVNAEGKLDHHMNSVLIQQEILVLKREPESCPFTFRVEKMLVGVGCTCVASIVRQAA
Method: as §2

rat IL-17A = biological target: T8, rat IL-17A (rat, UniProt Q61453 18-150, limits assumed); assay: ELISA, coated IL-17A
T8 sequence (looked up): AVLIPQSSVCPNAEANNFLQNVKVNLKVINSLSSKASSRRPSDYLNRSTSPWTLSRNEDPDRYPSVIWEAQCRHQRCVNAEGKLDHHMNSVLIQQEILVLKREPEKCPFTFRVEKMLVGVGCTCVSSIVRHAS
Method: as §2

guinea pig IL-17A = guinea pig IL-17A (guinea pig); assay: ELISA, coated IL-17A
Method: as §2

human IL-17F [11] = biological target: T5, human IL-17F; assay: ELISA, coated IL-17F;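 note: binding ELISA on coated antigen from various species, with bound Nanobodies revealed by an HRP-linked anti-myc antibody and esTMB substrate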
Method: as §2

marmoset IL-17F = biological target: T9, marmoset IL-17F (marmoset, UniProt A6N6I9 31-163); assay: ELISA, coated IL-17F;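 note: binding ELISA on coated antigen from various species, with bound Nanobodies revealed by an HRP-linked anti-myc antibody and esTMB substrate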
T9 sequence (looked up): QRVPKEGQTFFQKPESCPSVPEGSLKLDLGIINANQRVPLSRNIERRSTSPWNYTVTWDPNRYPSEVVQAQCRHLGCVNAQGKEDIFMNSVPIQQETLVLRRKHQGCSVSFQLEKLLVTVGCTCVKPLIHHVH
Method: as §2

mouse IL-17F = biological target: T10, mouse IL-17F (mouse, UniProt Q7TNI7 29-161); assay: ELISA, coated IL-17F;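 note: binding ELISA on coated antigen from various species, with bound Nanobodies revealed by an HRP-linked anti-myc antibody and esTMB substrate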
T10 sequence (looked up): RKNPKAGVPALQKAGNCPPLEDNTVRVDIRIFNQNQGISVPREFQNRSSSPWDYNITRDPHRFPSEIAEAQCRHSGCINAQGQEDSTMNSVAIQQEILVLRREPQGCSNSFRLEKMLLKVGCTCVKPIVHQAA
Method: as §2

rat IL-17F = biological target: T11, rat IL-17F (rat, UniProt Q5BJ95 29-161); assay: ELISA, coated IL-17F;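 note: binding ELISA on coated antigen from various species, with bound Nanobodies revealed by an HRP-linked anti-myc antibody and esTMB substrate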
T11 sequence (looked up): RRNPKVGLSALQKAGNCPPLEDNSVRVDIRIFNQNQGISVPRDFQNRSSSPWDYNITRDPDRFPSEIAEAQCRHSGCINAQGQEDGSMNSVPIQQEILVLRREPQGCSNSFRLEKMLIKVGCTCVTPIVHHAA
Method: as §2

human IL-17A [12] = biological target: T4, human IL-17A; assay: KinExA, 500 pM Nanobody
human IL-17F [13] = biological target: T5, human IL-17F; assay: KinExA, 500 pM Nanobody
human IL-17A [14] = biological target: T4, human IL-17A; assay: SPR, IL-17A-Nanobody complex over captured IL-17RA
From the text: (§3) The receptor (IL-17RA or IL-17RC) was captured via its human Fc-tail by an anti-human IgG-Fc antibody coated on the chip.

human IL-17F [15] = biological target: T5, human IL-17F; assay: SPR, IL-17F-Nanobody complex over captured IL-17RC
From the text: as §3

human IL-17F [16] = biological target: T12, human IL-17F (human, UniProt Q96PD4 31-163); assay: method not given
T12 construct: also called hIL-17F; rhIL-17F
T12 sequence: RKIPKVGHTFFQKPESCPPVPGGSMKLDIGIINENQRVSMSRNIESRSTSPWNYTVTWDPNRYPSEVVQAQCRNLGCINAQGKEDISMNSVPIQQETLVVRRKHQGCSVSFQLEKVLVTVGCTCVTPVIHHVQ

human IL-17F [17] = biological target: T13, human IL-17F (human, UniProt Q96PD4 31-163); assay: SPR (Biacore) off-rate
T13 construct: made in Hek293 cells (GenBank AF384857); also called hIL-17F; hIL17F
T13 sequence: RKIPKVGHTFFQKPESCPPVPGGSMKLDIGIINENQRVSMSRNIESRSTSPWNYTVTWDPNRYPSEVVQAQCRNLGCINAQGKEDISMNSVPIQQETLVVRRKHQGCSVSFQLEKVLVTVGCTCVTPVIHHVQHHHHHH

[18] = biological target: T2, human IL-17A/F heterodimer; assay: SPR (Biacore) off-rate; remark: listed apart in the source
Target sequence in this assay (Q16552 24-155 limits assumed, chain 1 of 2, one chain of several): as the sequence (Q16552 24-155 limits assumed, one chain of several) above

human IL-17F [19] = biological target: T13, human IL-17F; assay: AlphaScreen IL-17F-IL-17RC; vs IL17MS16A04
human IL-17F [20] = biological target: T5, human IL-17F; assay: KinExA, 100 pM Nanobody
Method: The affinity of a limited set of formatted Nanobodies was determined using the KinExA.

T3 sequence (A0A2K5TTB0 entry or part of it): as the sequence (Q16552 24-155 limits assumed, one chain of several) above, with T3A, P8S, N34S, I77V, N78K, P104R counted along it

B1: IL17MS3061 (VHH)
VHH: DVQLVESGGGLVQPGGSLRLSCAASGTIVNIHVMGWYRQAPGKQRELVALIFSGGSADYADSVKGRFTISRDNSKNTVYLQMNSLRPEDTAVYYCAAEIGYYSGGTYYSSEAHWGQGTLVTVSS
notes: variant of IL17MS04G01; Kabat numbering
koff (human IL-17A [1]): 0.000146 s⁻¹ | koff [2]: 0.000195 s⁻¹ | koff (Cynomolgus monkey IL-17A): 0.000181 s⁻¹ | IC50 cell based assay hIL-17A (IL-6, HT-1080 cells) (human IL-17A [3]): 0.94 nM | IC50 cell based assay hIL-17A/F (IL-6, HT-1080 cells) [4]: 8.15 nM | IC50 (human IL-17A [5]): 0.027 nM

B2: SH-Fc-(GS)2-13E02 (Fc fusion, not shown: a dimerising Fc or GST; small tags and cut ends)
chain: EVQLVESGGGLVQAGGSLRLSCAASGRTYDAMGWLRQAPGKEREFVAAISGSGDDTYYADSVKGRFTISKDNAGITMYLQMNSLKPEDTAVYYCATRRGLYYVWDSNDYENWGQGTQVTVSS
notes: also called MSB0010619; SH-(GS)2-Fc-13E02
IC50, hIL-17A induced IL-6, HT-1080, without HSA (human IL-17A [6]): 0.31 nM | IC50, hIL-17F induced IL-6, HT-1080, without HSA (human IL-17F [7]): 4.9 nM | IC50 (human IL-17A [8]): 0.112 nM | IC50 (human IL-17F [9]): 0.267 nM

B3: 13E02 (VHH)
VHH: EVQLVESGGGLVQAGGSLRLSCAASGRTYDAMGWLRQAPGKEREFVAAISGSGDDTYYADSVKGRFTISKDNAGITMYLQMNSLKPEDTAVYYCATRRGLYYVWDSNDYENWGQGTQVTVSS
notes: Class 4; also called IL17MS13E02
OD (human IL-17A [10]): 1.79 OD | OD (marmoset IL-17A): 1.85 OD | OD (mouse IL-17A): -0.001 OD | OD (rat IL-17A): 0.003 OD | OD (guinea pig IL-17A): 0.006 OD | OD (human IL-17F [11]): 1.1 OD | OD (marmoset IL-17F): 0.248 OD | OD (mouse IL-17F): 0.0155 OD | OD (rat IL-17F): 0.0255 OD | Kd (human IL-17A [12]): 0.0359 nM | Kd (human IL-17F [13]): 3.62 nM | IC50 (human IL-17A [8]): 0.42 nM | IC50 (human IL-17F [9]): 3.02 nM | % Biacore binding (IL-17A-NB)-IL-17RA (human IL-17A [14]): -1.04% | % Biacore binding (IL-17F-NB)-IL-17RC (human IL-17F [15]): 7.17%

B4: 13E02 Fc fusion (Fc fusion)
chain: EVQLVESGGGLVQAGGSLRLSCAASGRTYDAMGWLRQAPGKEREFVAAISGSGDDTYYADSVKGRFTISKDNAGITMYLQMNSLKPEDTAVYYCATRRGLYYVWDSNDYENWGQGTQVTVSS
notes: also called 13E02 tested as Fc fusion; not shown: hinge and Fc
fold lower affinity on IL-17F than on IL-17A (human IL-17F [16]): ~10 fold

B5: IL17MS3040 (VHH)
VHH: EVQLVESGGGLVQAGGSLRLSCAASGRTFSSYVVGWFRQAPGKEREFIGAISGSGGSIYYAVSEKDRFTISRDNGKNTLYLQMSSLKAEDTAVYYCTADQEFGYLRFGRSEYWGQGTQVTVSS
koff (human IL-17F [17]): 0.00148 s⁻¹ | koff [18]: 0.00878 s⁻¹ | IC50 fold difference vs WT (human IL-17F [19]): 9.6 fold

B6: IL17MS3041 (VHH)
VHH: EVQLVESGGGLVQAGGSLRLSCAASGRTFSSYVVGWFRQAPGKEREFIGAISGSGESIYYAVSEKDRFTISRDNGKNTLYLQMSSLKAEDTAVYYCTADQEFGYLRFGRSEYWGQGTQVTVSS
koff (human IL-17F [17]): 0.000606 s⁻¹ | koff [18]: 0.00427 s⁻¹ | IC50 fold difference vs WT (human IL-17F [19]): 2.2 fold

B7: IL17MS3042 (VHH)
VHH: EVQLVESGGGLVQAGGSLRLSCAASGRTFSSYVVGWFRQAPGKEREFIGAISGSGDTIYYAVSEKDRFTISRDNGKNTLYLQMSSLKAEDTAVYYCTADQEFGYLRFGRSEYWGQGTQVTVSS
koff (human IL-17F [17]): 0.00121 s⁻¹ | koff [18]: 0.005 s⁻¹ | IC50 fold difference vs WT (human IL-17F [19]): 8.6 fold

B8: SH-Fc-(GS)2-13B03 (Fc fusion, not shown: a dimerising Fc or GST; small tags and cut ends)
chain: EVQLVESGGGSVQAGDSLRLSCAASGRANSINWFGWFRQTPGKEREFVAGIRWSDAYTEYANSVKGRFTISRDNAKNTVDLQMDSLKPEDTAVYYCVLDLSTVRYWGQGTQVTVSS
notes: also called MSB0010618; SH-(GS)2-Fc-13B03
Emax, hIL-17A induced IL-6, HT-1080, without HSA (human IL-17A [6]): 100% | IC50, hIL-17A induced IL-6, HT-1080, without HSA (human IL-17A [6]): 0.37 nM | IC50, hIL-17F induced IL-6, HT-1080, without HSA (human IL-17F [7]): 5.7 nM | Kd (human IL-17F [20]): 0.145 nM | IC50 (human IL-17A [8]): 0.044 nM

B9: 13B03 (VHH)
VHH: EVQLVESGGGSVQAGDSLRLSCAASGRANSINWFGWFRQTPGKEREFVAGIRWSDAYTEYANSVKGRFTISRDNAKNTVDLQMDSLKPEDTAVYYCVLDLSTVRYWGQGTQVTVSS
notes: Class 4; also called IL17MS13B03
OD (human IL-17A [10]): 1.95 OD | OD (marmoset IL-17A): 1.94 OD | OD (mouse IL-17A): -0.001 OD | OD (rat IL-17A): 0.004 OD | OD (guinea pig IL-17A): 0.004 OD | OD (human IL-17F [11]): 1.66 OD | OD (marmoset IL-17F): 1.33 OD | OD (mouse IL-17F): -0.0005 OD | OD (rat IL-17F): 0.0085 OD | Kd (human IL-17A [12]): 0.0225 nM | Kd (human IL-17F [13]): 4.91 nM | IC50 (human IL-17A [8]): 0.121 nM | IC50 (human IL-17F [9]): 91.6 nM | % Biacore binding (IL-17A-NB)-IL-17RA (human IL-17A [14]): -2.24% | % Biacore binding (IL-17F-NB)-IL-17RC (human IL-17F [15]): 15.7%

B10: 13B03 Fc fusion (Fc fusion)
chain: EVQLVESGGGSVQAGDSLRLSCAASGRANSINWFGWFRQTPGKEREFVAGIRWSDAYTEYANSVKGRFTISRDNAKNTVDLQMDSLKPEDTAVYYCVLDLSTVRYWGQGTQVTVSS
notes: also called 13B03 tested as Fc fusion; not shown: hinge and Fc
fold lower affinity on IL-17F than on IL-17A (human IL-17F [16]): ~10 fold
